This is an account of results in patent publication US20240412835.

The data set concerns PD-1 TALEN (left/right pair, split FokI) (synthetic construct). In words: cell_activity. Conditions: median of 6 TIL lots (38.09-74.73), NGS; document lists two candidate PD-1 TALEN pairs and does not state which was used.

PDCD1 exon 2 target site yielded an activity of 54 % indels.
